# Tests used:
# Test in all cases: cell-based or functional assay
# [1] = target: T1, human GIP receptor (human) (UniProt P48546)
# T1 sequence (looked up): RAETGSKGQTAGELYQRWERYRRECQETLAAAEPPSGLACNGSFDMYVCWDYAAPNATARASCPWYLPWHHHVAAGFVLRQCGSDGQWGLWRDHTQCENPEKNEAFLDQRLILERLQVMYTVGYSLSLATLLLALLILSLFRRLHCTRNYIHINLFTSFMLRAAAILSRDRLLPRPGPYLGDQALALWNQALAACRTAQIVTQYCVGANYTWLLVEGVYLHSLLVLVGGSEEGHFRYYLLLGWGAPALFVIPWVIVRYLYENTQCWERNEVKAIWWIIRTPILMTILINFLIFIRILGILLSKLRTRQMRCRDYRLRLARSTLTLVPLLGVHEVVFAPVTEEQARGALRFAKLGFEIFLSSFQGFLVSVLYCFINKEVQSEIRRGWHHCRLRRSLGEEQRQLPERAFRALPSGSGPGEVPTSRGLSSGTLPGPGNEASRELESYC
# hGLP-1R = hGLP-1R (Homo sapiens, UniProt P43220)
# [2] = target: human glucagon receptor (human) (UniProt P47871)
cAMP EC50 (1.0% HSA) [1] [nM],cAMP Emax (1.0% HSA) [1] [%],cAMP EC50 (1.0% HSA) (hGLP-1R) [nM],cAMP Emax (1.0% HSA) (hGLP-1R) [%],cAMP EC50 (1.0% HSA) [2] [µM],Substance
1.15,94.1,40.8,98.2,> 9.95,Y-Aib-EGT-αMeF(2F)-TSD-4Pal-SI-αMeL-LD-Orn-K((2-[2-(2-Amino-ethoxy)-ethoxy]-acetyl)2-(γ-Glu)-CO-(CH2)12-CO2H)AQ-Aib-EFI-(D-Glu)-αMeY-LIEGGK((2-[2-(2-Amino-ethoxy)-ethoxy]-acetyl)2-(γ-Glu)-CO-(CH2)12-CO2H)SSG-Orn-PPPS-NH2 (peptide)
0.0417,91.9,12,104,> 9.95,Y-Aib-EGT-αMeF(2F)-TSD-4Pal-SI-αMeL-LD-Orn-K((2-[2-(2-Amino-ethoxy)-ethoxy]-acetyl)2-(γ-Glu)-(4-(4-tert-butylphenyl)butanoyl))AQ-Aib-EFI-(D-Glu)-K((2-[2-(2-Amino-ethoxy)-ethoxy]-acetyl)2-(γ-Glu)-(4-(4-tert-butylphenyl)butanoyl))…-NH2 (peptide)
1.55,82.8,28.9,112,> 9.95,Y-Aib-EGT-αMeF(2F)-TSD-4Pal-SI-αMeL-LD-Orn-K((2-[2-(2-Amino-ethoxy)-ethoxy]-acetyl)2-(γ-Glu)-CO-(CH2)12-CO2H)AQ-Aib-EFIK((2-[2-(2-Amino-ethoxy)-ethoxy]-acetyl)2-(γ-Glu)-CO-(CH2)12-CO2H)-αMeY-LIEG-Orn-NH2 (peptide)
1.37,89,19.1,106,> 9.95,Y-Aib-EGT-αMeF(2F)-TSD-4Pal-SI-αMeL-LD-Orn-K((2-[2-(2-Amino-ethoxy)-ethoxy]-acetyl)2-(γ-Glu)-CO-(CH2)12-CO2H)AQ-Aib-EFIK((2-[2-(2-Amino-ethoxy)-ethoxy]-acetyl)2-(γ-Glu)-CO-(CH2)12-CO2H)-αMeY-…-NH2 (peptide)
0.335,86.2,11.3,103,> 9.95,Y-Aib-EGT-αMeF(2F)-TSD-4Pal-SI-αMeL-LD-Orn-K((2-[2-(2-Amino-ethoxy)-ethoxy]-acetyl)2-(εK)-CO-(CH2)12-CO2H)AQ-Aib-EFI-(D-Glu)-αMeY-LIEGGK((2-[2-(2-Amino-ethoxy)-ethoxy]-acetyl)2-(εK)-CO-(CH2)12-CO2H)-NH2 (peptide)
0.939,79.3,18,109,> 9.95,Y-Aib-EGT-αMeF(2F)-TSD-4Pal-SI-αMeL-LD-Orn-K((εK)-(εK)-(γ-Glu)-CO-(CH2)12-CO2H)AQ-Aib-EFI-(D-Glu)-αMeY-LIEGGK((εK)-(εK)-(γ-Glu)-CO-(CH2)12-CO2H)-NH2 (peptide)

Substance,cAMP EC50 (1.0% HSA) [1] [nM],cAMP Emax (1.0% HSA) [1] [%],cAMP EC50 (1.0% HSA) (hGLP-1R) [nM],cAMP Emax (1.0% HSA) (hGLP-1R) [%],cAMP EC50 (1.0% HSA) [2] [µM]
Y-Aib-EGT-αMeF(2F)-TSD-4Pal-SI-αMeL-LD-Orn-IAQ-Aib-K((2-[2-(2-Amino-ethoxy)-ethoxy]-acetyl)2-(γ-Glu)-CO-(CH2)12-CO2H)FIK((2-[2-(2-Amino-ethoxy)-ethoxy]-acetyl)2-(γ-Glu)-CO-(CH2)12-CO2H)-αMeY-…-NH2 (peptide),2.32,86.8,18.9,102,> 9.95
Y-Aib-EGT-αMeF(2F)-TSD-4Pal-αMeS-I-αMeL-LD-Orn-K((2-[2-(2-Amino-ethoxy)-ethoxy]-acetyl)2-(γ-Glu)-CO-(CH2)12-CO2H)AQ-Aib-EFIK((2-[2-(2-Amino-ethoxy)-ethoxy]-acetyl)2-(γ-Glu)-CO-(CH2)12-CO2H)-αMeY-…-NH2 (peptide),2.03,80.4,17.9,108,> 9.95
Y-Aib-EGT-αMeF(2F)-TSD-4Pal-SI-αMeL-LD-Orn-K((2-[2-(2-Amino-ethoxy)-ethoxy]-acetyl)2-(γ-Glu)-(4-(4-tert-butylphenyl)butanoyl))AQ-Aib-EFIE-K((2-[2-(2-Amino-ethoxy)-ethoxy]-acetyl)2-(γ-Glu)-(4-(4-tert-butylphenyl)butanoyl))…-NH2 (peptide),0.0831,92.4,5.79,102,> 9.95
Y-Aib-EGT-αMeF(2F)-TSD-4Pal-SI-αMeL-LD-Orn-IAQ-Aib-K((2-[2-(2-Amino-ethoxy)-ethoxy]-acetyl)2-CO-(CH2)12-CO2H)FIK((2-[2-(2-Amino-ethoxy)-ethoxy]-acetyl)2-CO-(CH2)12-CO2H)-αMeY-…-NH2 (peptide),0.866,86.2,13.1,105,> 9.95
